For assay [1], the target named is BiP-His6 (WT-BiP, aa 19-637) (human) (UniProt P11021). Briefly: BLI. In general terms: Biolayer interferometry detects binding as a change in optical thickness at a sensor tip.
The target is the same in assay [2]. Briefly: BLI. This is another data set of the same source.

Like-named read-outs stand apart in the source and are kept apart here.

A word on the Kd: it is the equilibrium constant for the complex coming apart. A low value points to tighter binding.

Chain of BiP-His6 (WT-BiP, aa 19-637) (human) (P11021 19-637): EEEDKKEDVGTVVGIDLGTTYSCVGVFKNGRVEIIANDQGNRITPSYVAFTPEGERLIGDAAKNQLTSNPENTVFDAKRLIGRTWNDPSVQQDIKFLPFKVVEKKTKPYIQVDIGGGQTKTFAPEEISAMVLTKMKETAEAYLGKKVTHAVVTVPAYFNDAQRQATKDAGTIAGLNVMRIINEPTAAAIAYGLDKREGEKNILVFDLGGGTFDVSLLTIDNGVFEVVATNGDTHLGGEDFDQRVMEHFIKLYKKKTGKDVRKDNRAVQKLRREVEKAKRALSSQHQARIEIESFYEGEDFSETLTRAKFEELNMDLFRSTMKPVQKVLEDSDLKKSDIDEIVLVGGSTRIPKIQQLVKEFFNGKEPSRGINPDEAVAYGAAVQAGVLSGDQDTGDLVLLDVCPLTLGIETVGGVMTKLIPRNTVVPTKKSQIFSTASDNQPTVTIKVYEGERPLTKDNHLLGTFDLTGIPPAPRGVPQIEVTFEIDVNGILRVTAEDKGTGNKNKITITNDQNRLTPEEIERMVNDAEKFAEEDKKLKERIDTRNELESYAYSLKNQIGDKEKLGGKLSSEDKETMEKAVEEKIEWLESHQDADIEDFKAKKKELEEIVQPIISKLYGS

As to “E234G-HYPE (aa 102-458) (from UniProt Q9BVA6) (enzyme)”, the dissociation constant (Kd) in assay [1] came out at 10.2 µM; in assay [2] it was 18 µM.

(Values after doi:10.1101/494930.)
